Reference: publication PMC4443670, “The C-terminal region of the motor protein MCAK controls its structure and activity through a conformational switch” (eLife, 2015)
Substitutions are numbered along the chain they refer to. Names may count otherwise. “And” between values parts separate entries of the source, which are not always exact repeats. Identical values can stand only once. Like-named read-outs stand apart in the source and are kept apart here.

Key:
[1] = system: taxol-stabilized microtubules; assay: Microtubule depolymerisation assay; format: biochemical
Description: Microtubule depolymerization assays were performed essentially as described previously ([Hertzer et al., 2006]). MCAK was diluted to 100 nM in S-buffer containing 1 mM DTT and 2 mM Mg-ATP. For depolymerization assays of the motor domain in presence of the CT domain after GST cleavage and removal, 50 nM of motor domain and 100 nM of the CT domain were used. The microtubule depolymerization assay was initiated by the addition of 2 μM taxol-stabilized microtubules to a reaction buffer containing MCAK. Reactions were incubated at room temperature with increasing times and followed by centrifugation to separate microtubules from free tubulin. The data are represented as mean ± SD from three independent experiments.

[2] = Analytical size-exclusion chromatography (oligomeric state / size); format: physicochemical
Description: Protein expression was induced by addition of 0.5 mM IPTG to BL21(DE3) Codon plus cells transformed with respective constructs at OD600 of 0.7–0.8 for 16 hr at 18°C. Cells were lysed by sonication in lysis buffer (50 mM Hepes, pH 7.4, 200 mM NaCl, 1 mM MgCl2, 1 mM PMSF, 1 mg/ml DNaseI, 2 mg/ml lysozyme, 10 mM Imidazole) and clarified at 20,000 rpm for 1 hr at 4°C. His-tagged and GST-tagged proteins were subsequently purified using Ni-NTA–agarose beads and glutathione-sepharose beads, respectively (GE Healthcare Life Sciences, UK)) according to the manufacturer's guidelines. MCAK constructs containing the motor domain were eluted with elution buffer (50 mM Hepes, pH 7.4, 200 mM NaCl, 1 mM MgCl2, 1 mM ATP, and 300 mM imidazole). Cleavage of the GST tag was performed using the GST-3C protease overnight at 4°C. […] Protein concentrations were determined with a combination of Bradford protein assays and densitometry of Coomassie-stained gels relative to a BSA standard. […]

[3] = Size-exclusion chromatography coupled to multi-angle light scattering (SEC-MALS); format: physicochemical; conditions: 100 mM HEPES pH 7.2, 150 mM NaCl
Description: Size-exclusion chromatography with on-line multi-angle light scattering (SEC-MALS) was performed using a GE Superdex 200 10/300 GL column on an ÄKTA FPLC system. MALS measurements were performed using a MiniDAWN in-line detector (Wyatt Technology, Santa Barbara, CA, USA). MCAK motor domain and C terminus were at 2 mg/ml in 100 mM HEPES, pH 7.2, 150 mM NaCl. Protein concentration was monitored using a UV monitor at 280 nm and a refractive index detector was set at 690 nm (Optilab DSP, Wyatt Technology, Santa Barbara, CA, USA). Data were analyzed using Astra software (Wyatt Technology, Santa Barbara, CA, USA) using the refractive index detector and a refractive index increment (dn/dc) value of 0.185 ml/g. Gel phase distribution coefficients (Kav) were determined from the equation Kav = (Ve − Vo)/(Vt − Vo), where Ve, Vo, and Vt represent the elution volume of the protein of interest, the column void volume and the total bed volume of the column, respectively.

[4] = biological target: subtilisin-treated microtubules; assay: Microtubule cosedimentation assay, subtilisin-treated microtubules; format: binding; conditions: for affinity for subtilisin-treated microtubules (β-tubulin C termini removed): 50 nM full-length protein, subtilisin 10 min
Description: (§1) Full-length MCAK complex was diluted in S buffer (50 mM NaCl, 20 mM Hepes pH 7.0) to 50 nM, in absence of nucleotide to prevent MCAK-dependent microtubule depolymerisation. To assemble an MCAK motor-CT domain complex, 50 nM of the motor domain and 100 nM of the CT domain were used. Microtubule binding assays were performed as described ([Cheeseman et al., 2006]) using equal volumes of taxol-stabilized microtubules in BRB80 and MCAK in S buffer. MCAK was quantified using anti-MCAK antibody against the C terminus of MCAK (709[…]720), generated by GL Biochem (Shangai) Ltd (China) or anti-His antibody to probe for the motor domain alone (GE Healthcare Lifesciences, UK). The data from at least three independent experiments were fitted to a modified Hill equation to determine the apparent Kd.
Tubulin (5 mg/ml) was first polymerized into MTs in the presence of 1 mM GTP and gradual addition of 0.05 µM, 0.5 µM and 2 µM taxol for 1 hr at 37°C. The polymerized MTs were then treated with 100 μg/ml subtilisin and incubated at 37°C for 10 min to cleave β-tubulin tails and 120 min to cleave both α- and β-tubulin tails. Each reaction was then terminated with the addition of 3 mM PMSF. DM1A (Abcam, UK) and c-terminal β-tubulin (Sigma, UK) were used to detect the α- and β-tails, respectively by western blotting. The subtilisin treated microtubules were then pelleted at 28°C in a TLA100 rotor at 80,000 rpm for 10 min and the microtubule pellets were resuspended in warm BRB80 buffer to obtain subtilisin treated microtubules. The cosedimentation assays were then performed as described before.

[5] = biological target: taxol-stabilized microtubules; assay: Microtubule cosedimentation assay, untreated microtubules; format: binding; conditions: for Kd: 50 nM, modified Hill equation, at least three independent experiments, read-out: apparent Kd for microtubules
Description: as §1

[6] = full-length protein, absence of nucleotide, untreated microtubules

B1: motor domain: motor region of MCAK along with the neck linker region (residues 181–583), His-tagged (protein, UniProt Q99661 181-583, looked up, fragment)
chain: SANPVNSVRRKSCLVKEVEKMKNKREEKKAQNSEMRMKRAQEYDSSFPNWEFARMIKEFRATLECHPLTMTDPIEEHRICVCVRKRPLNKQELAKKEIDVISIPSKCLLLVHEPKLKVDLTKYLENQAFCFDFAFDETASNEVVYRFTARPLVQTIFEGGKATCFAYGQTGSGKTHTMGGDLSGKAQNASKGIYAMASRDVFLLKNQPCYRKLGLEVYVTFFEIYNGKLFDLLNKKAKLRVLEDGKQQVQVVGLQEHLVNSADDVIKMIDMGSACRTSGQTFANSNSSRSHACFQIILRAKGRMHGKFSLVDLAGNERGADTSSADRQTRMEGAEINKSLLALKECIRALGQNKAHTPFRESKLTQVLRDSFIGENSRTCMIATISPGISSCEYTLNTLRYAD
modifications: His tag
notes: motor region of MCAK along with the neck linker region (residues 181–583), His-tagged
With B1 the “microtubule depolymerase activity of motor with CT domain, with and without DTT” value ([1]; 50 nM motor domain, 100 nM CT domain, 2 μM taxol-stabilized microtubules) was “could depolymerize microtubules”, the “apparent size (gel filtration)” value [2] was about 45 kDa and the fraction monomeric ([3]; SEC-MALS, absence of CT domain, 2 mg/ml) was “over 90%”. The Monodispersity ([3]; SEC-MALS) was 1.005, the “measured molecular weight (MW)” value ([3]; SEC-MALS, Superdex 200 10/300 GL, 2 mg/ml, unit printed kDa in text, kD in figure) was about 45.3 kDa and the “Stoke Radius” value ([3]; from SEC calibration curve) was 3.11 nm. For the same molecule, the Kd ([4]; 50 nM motor domain in motor-CT domain complex, subtilisin-treated microtubules (10 or 120 min), absence of nucleotide) was 200 nM, the “effect of α-tubulin tail removal on affinity for microtubules lacking β-tubulin tail” value ([4]; 50 nM motor domain, subtilisin 120 vs 10 min) was “did not further modify the affinity” and the Kd ([5]; motor domain alone, absence of nucleotide) was 640 nM.

B2: CTE712C-bound motor: motor domain covalently bound (disulphide) to CTE712C domain (protein)
chain 1: NPVNSVRRKSCLVKEVEKMKNKREEKKAQNSEMRMKRAQEYDSSFPNWEFARMIKEFRATLECHPLTMTDPIEEHRICVCVRKRPLNKQELAKKEIDVISIPSKCLLLVHEPKLKVDLTKYLENQAFCFDFAFDETASNEVVYRFTARPLVQTIFEGGKATCFAYGQTGSGKTHTMGGDLSGKAQNASKGIYAMASRDVFLLKNQPCYRKLGLEVYVTFFEIYNGKLFDLLNKKAKLRVLEDGKQQVQVVGLQEHLVNSADDVIKMIDMGSACRTSGQTFANSNSSRSHACFQIILRAKGRMHGKFSLVDLAGNERGADTSSADRQTRMEGAEINKSLLALKECIRALGQNKAHTPFRESKLTQVLRDSFIGENSRTCMIATISPGISSCEYTLNTLRYAD
chain 2: VIKALRLAMQLECQASRQISSKKRPQ
modifications: disulphide bridge of Cysteine 287 to Cysteine 712 of the CT_(E712C) domain | disulphide bridge of Cysteine 712 to Cysteine 287 of the motor domain; left off: His tag, end not stated, kept | GST, end n
In the case of B2, the “detection of CT domain in microtubule-bound pellet / supernatant” value ([5]; western blot, 50 nM motor domain, with and without DTT) is reported as “remained in the supernatant”.

B3: MCAKS715E: full-length MCAK S715E in which the CT domain cannot bind to the motor domains (protein)
chain: MAMDSSLQARLFPGLAIKIQRSNGLIHSANVRTVNLEKSCVSVEWAEGGATKGKEIDFDDVAAINPELLQLLPLHPKDNLPLQENVTIQKQKRRSVNSKIPAPKESLRSRSTRMSTVSELRITAQENDMEVELPAAANSRKQFSVPPAPTRPSCPAVAEIPLRMVSEEMEEQVHSIRGSSSANPVNSVRRKSCLVKEVEKMKNKREEKKAQNSEMRMKRAQEYDSSFPNWEFARMIKEFRATLECHPLTMTDPIEEHRICVCVRKRPLNKQELAKKEIDVISIPSKCLLLVHEPKLKVDLTKYLENQAFCFDFAFDETASNEVVYRFTARPLVQTIFEGGKATCFAYGQTGSGKTHTMGGDLSGKAQNASKGIYAMASRDVFLLKNQPCYRKLGLEVYVTFFEIYNGKLFDLLNKKAKLRVLEDGKQQVQVVGLQEHLVNSADDVIKMIDMGSACRTSGQTFANSNSSRSHACFQIILRAKGRMHGKFSLVDLAGNERGADTSSADRQTRMEGAEINKSLLALKECIRALGQNKAHTPFRESKLTQVLRDSFIGENSRTCMIATISPGISSCEYTLNTLRYADRVKELSPHSGPSGEQLIQMETEEMEACSNGALIPGNLSKEEEELSSQMSSFNEAMTQIRELEEKAMEELKEIIQQGPDWLELSEMTEQPDYDLETFVNKAESALAQQAKHFSALRDVIKALRLAMQLEEQAERQISSKKRPQ
modifications: left off: His tag, end not stated, state not stated
With B3 the “microtubule depolymerase activity, full-length” value ([1]; 100 nM protein, 2 μM microtubules, 1 mM DTT, 2 mM Mg-ATP, room temperature, three experiments) was “appeared similar to wild type MCAK”, the “affinity for subtilisin-treated microtubules (β-tubulin C termini removed)” value ([4]; absence of nucleotide) was “remained comparably high” and the Kd [5, 6] was ~200 nM and 200 nM.

B4: MCAKE712C: full-length MCAK with Glu712 mutated to cysteine (protein)
chain: B3 chain with E712C, E715S
modifications: left off: His tag, end not stated, state not stated
notes: full-length MCAK with Glu712 mutated to cysteine
For B4, the gel filtration profile [2] was “eluted as one complex, of similar size to MCAK”, the “microtubule binding, absence of DTT (oxidizing)” value ([5]; full-length protein 50 nM, absence of DTT and nucleotide) was “the affinity of MCAKE712C for microtubules was reduced and a fraction of MCAKE712C did not bind microtubules, even at saturating microtubule concentrations” and the “microtubule binding, presence of DTT” value ([5]; full-length protein 50 nM, with DTT, absence of nucleotide) was “bound to microtubules similarly to wild type full-length MCAK”.

B5: MCAK: full-length wild type MCAK, kinesin-13 microtubule depolymerase (protein)
chain: B3 chain with E715S
modifications: left off: His tag, end not stated, state not stated
notes: full-length wild type MCAK, kinesin-13 microtubule depolymerase
For B5, the “affinity for subtilisin-treated microtubules (β-tubulin C termini removed)” value ([4]; absence of nucleotide) was “increased the affinity” and the Kd [5, 6] was ~1500 nM and 1500 nM.
